Assay in all cases: Mass spectroscopy proteomics, semi-quantitative binding affinity of serum proteins (plaqueproteome, Table 2)
Conditions in all cases: higher number = stronger affinity

The target in experiment [1] is T1, Abeta-42 plaque particles (Homo sapiens, UniProt P05067).
T1 construct: Abeta 1-42
Summed up: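 AD patient serum or plasma (50% in PBS) was incubated with Abeta-42 aggregates (30 μg) for 1 h at 37 °C, then stained with Thioflavin S for 30 min. Labeled particles were FACS-sorted, trypsin/Lys-C digested overnight and analyzed by MS/MS. Sequest searched human UniProt; Scaffold/Protein Prophet validated the identifications.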

The test system of the next experiment is Tau plaque particles. Also on record: species or system human. The procedure, abridged:
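Serum or plasma proteins captured on Thioflavin S-labelled Tau plaque particles (Tau-74, Tau-275 oligomers preformed in PBS at 37° C for 2 h; 1 h co-incubation at 37° C) were isolated by FACS sorting, then tryptically digested and identified by MS/MS (Sequest, human UniProt, strict trypsin).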

In experiment [2] the target is T2, alpha-synuclein plaque particles (Homo sapiens, UniProt P37840).
T2 construct: 140 amino acids polypeptide
The procedure, abridged:
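AD-subject plasma or serum (800 μL of 50%) mixed with 30 μg preformed alpha-synuclein aggregates for 1 h at 37 °C; Thioflavin S-positive particles isolated by flow sorting. After reduction, acrylamide alkylation and overnight tryptic digestion, serum proteins identified by MS/MS with Sequest and Scaffold.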

Experiment [3] has as its system Low density cholesterol (Chl small) plaque particles. Also on record: species or system human. The procedure, abridged:
(§1)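 Read-out is MS/MS protein identification (Sequest, strict trypsin, 20 ppm parent tolerance; Scaffold probabilities) of serum proteins bound to flow-sorted cholesterol plaque particles. These particles formed when 50% atherosclerotic serum was incubated with 30 μg cholesterol aggregates for 1 hr at 37° C.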

In experiment [4] the test system is High Density cholesterol (Chl Large) plaque particles. More on the design: species or system human. Summed up:
as §1

B1: Lactotransferrin (protein)
chain: GRRRSVQWCAVSQPEATKCFQWQRNMRKVRGPPVSCIKRDSPIQCIQAIAENRADAVTLDGGFIYEAGLAPYKLRPVAAEVYGTERQPRTHYYAVAVVKKGGSFQLNELQGLKSCHTGLRRTAGWNVPIGTLRPFLNWTGPPEPIEAAVARFFSASCVPGADKGQFPNLCRLCAGTGENKCAFSSQEPYFSYSGAFKCLRDGAGDVAFIRESTVFEDLSDEAERDEYELLCPDNTRKPVDKFKDCHLARVPSHAVVARSVNGKEDAIWNLLRQAQEKFGKDKSPKFQLFGSPSGQKDLLFKDSAIGFSRVPPRIDSGLYLGSGYFTAIQNLRKSEEEVAARRARVVWCAVGEQELRKCNQWSGLSEGSVTCSSASTTEDCIALVLKGEADAMSLDGGYVYTAGKCGLVPVLAENYKSQQSSDPDPNCVDRPVEGYLAVAVVRRSDTSLTWNSVKGKKSCHTAVDRTAGWNIPMGLLFNQTGSCKFDEYFSQSCAPGSDPRSNLCALCIGDEQGENKCVPNSNERYYGYTGAFRCLAENAGDVAFVKDVTVLQNTDGNNNEAWAKDLKLADFALLCLDGKRKPVTEARSCHLAMAPNHAVVSRMDKVERLKQVLLHQQAKFGRNGSDCPDKFCLFQSETKNLLFNDNTECLARLHGKTTYEKYLGPQYVAGITNLKKCSTSPLLEACEFLRK
As to B1, the “Semi-quantitative analysis of proteins binding to different plaque particles: Abeta-42” value in experiment [1] was determined as 5. Moreover, in the experiment with Tau plaque particles, the “Semi-quantitative analysis of proteins binding to different plaque particles: Tau” value is on record as 0. Besides, the “Semi-quantitative analysis of proteins binding to different plaque particles: Synuclein” value in experiment [2] is 0. Moreover, the “Semi-quantitative analysis of proteins binding to different plaque particles: Chl small” value in experiment [3] was determined as 0. Moreover, in experiment [4], the “Semi-quantitative analysis of proteins binding to different plaque particles: Chl Large” value was 0.

B2: Isoform 2 of Ficolin-3 (protein)
chain: QEHPSCPGPRELEASKVVLLPSCPGAPGSPGEKGAPGPQGPPGPPGKMGPKGEPGPRNCRELLSQGATLSGWYHLCLPEGRALPVFCDMDTEGGGWLVFQRRQDGSVDFFRSWSSYRAGFGNQESEFWLGNENLHQLTLQGNWELRVELEDFNGNRTFAHYATFRLLGEVDHYQLALGKFSEGTAGDSLSLHSGRPFTTYDADHDSSNSNCAVIVHGAWWYASCYRSNLNGRYAVSEAAAHKYGIDWASGRGVGHPYRRVRMMLR
As for B2, the “Semi-quantitative analysis of proteins binding to different plaque particles: Abeta-42” value in experiment [1] was 0. For the same molecule, the “Semi-quantitative analysis of proteins binding to different plaque particles: Tau” value in the experiment on Tau plaque particles worked out at 0. Further, the “Semi-quantitative analysis of proteins binding to different plaque particles: Synuclein” value in experiment [2] is 1. The “Semi-quantitative analysis of proteins binding to different plaque particles: Chl small” value in experiment [3] stood at 0. In experiment [4], the “Semi-quantitative analysis of proteins binding to different plaque particles: Chl Large” value stood at 0.

B3: Ig gamma-3 chain C region (protein)
chain: ASTKGPSVFPLAPCSRSTSGGTAALGCLVKDYFPEPVTVSWNSGALTSGVHTFPAVLQSSGLYSLSSVVTVPSSSLGTQTYTCNVNHKPSNTKVDKRVELKTPLGDTTHTCPRCPEPKSCDTPPPCPRCPEPKSCDTPPPCPRCPEPKSCDTPPPCPRCPAPELLGGPSVFLFPPKPKDTLMISRTPEVTCVVVDVSHEDPEVQFKWYVDGVEVHNAKTKPREEQYNSTFRVVSVLTVLHQDWLNGKEYKCKVSNKALPAPIEKTISKTKGQPREPQVYTLPPSREEMTKNQVSLTCLVKGFYPSDIAVEWESSGQPENNYNTTPPMLDSDGSFFLYSKLTVDKSRWQQGNIFSCSVMHEALHNRFTQKSLSLSPGK
Consider B3, for which the “Semi-quantitative analysis of proteins binding to different plaque particles: Abeta-42” value in experiment [1] is recorded as 11. Besides, in the experiment with Tau plaque particles, the “Semi-quantitative analysis of proteins binding to different plaque particles: Tau” value is 13. In experiment [2], the “Semi-quantitative analysis of proteins binding to different plaque particles: Synuclein” value was 14. For the same molecule, the “Semi-quantitative analysis of proteins binding to different plaque particles: Chl small” value in experiment [3] was 11. In addition, the “Semi-quantitative analysis of proteins binding to different plaque particles: Chl Large” value in experiment [4] turned out to be 15.

B4: Platelet basic protein (protein)
chain: SSTKGQTKRNLAKGKEESLDSDLYAELRCMCIKTTSGIHPKNIQSLEVIGKGTHCNQVEVIATLKDGRKICLDPDAPRIKKIVQKKLAGDESAD
On to B4, for which, in experiment [1], the “Semi-quantitative analysis of proteins binding to different plaque particles: Abeta-42” value is on record as 0. Further, in the experiment on Tau plaque particles, the “Semi-quantitative analysis of proteins binding to different plaque particles: Tau” value was 2. Further, the “Semi-quantitative analysis of proteins binding to different plaque particles: Synuclein” value in experiment [2] is 1. Also, the “Semi-quantitative analysis of proteins binding to different plaque particles: Chl small” value in experiment [3] was 0. The “Semi-quantitative analysis of proteins binding to different plaque particles: Chl Large” value in experiment [4] was 0.

B5: Ig lambda chain V-III region (protein)
chain: SELTQDPAVSVALGQTVRITCQGDSLRSYYASWYQQKPGQAPVLVIYGKNNRPSGIPDRFSGSSSGNTASLTITGAQAEDEADYYCNSRDSS
As to B5, the “Semi-quantitative analysis of proteins binding to different plaque particles: Abeta-42” value in experiment [1] was 0. Further, the “Semi-quantitative analysis of proteins binding to different plaque particles: Tau” value in the experiment on Tau plaque particles is on record as 2. Further, the “Semi-quantitative analysis of proteins binding to different plaque particles: Synuclein” value in experiment [2] came to 2. Further, the “Semi-quantitative analysis of proteins binding to different plaque particles: Chl small” value in experiment [3] worked out at 1. Moreover, in experiment [4], the “Semi-quantitative analysis of proteins binding to different plaque particles: Chl Large” value stood at 1.

B6: Phosphatidylinositol-glycan-specific phospholipase D (protein)
chain: CGLSTHVEIGHRALEFLQLHNGRVNYRELLLEHQDAYQAGIVFPDCFYPSICKGGKFHDVSESTHWTPFLNASVHYIRENYPLPWEKDTEKLVAFLFGITSHMAADVSWHSLGLEQGFLRTMGAIDFHGSYSEAHSAGDFGGDVLSQFEFNFNYLARRWYVPVKDLLGIYEKLYGRKVITENVIVDCSHIQFLEMYGEMLAVSKLYPTYSTKSPFLVEQFQEYFLGGLDDMAFWSTNIYHLTSFMLENGTSDCNLPENPLFIACGGQQNHTQGSKMQKNDFHRNLTTSLTESVDRNINYTERGVFFSVNSWTPDSMSFIYKALERNIRTMFIGGSQLSQKHVSSPLASYFLSFPYARLGWAMTSADLNQDGHGDLVVGAPGYSRPGHIHIGRVYLIYGNDLGLPPVDLDLDKEAHRILEGFQPSGRFGSALAVLDFNVDGVPDLAVGAPSVGSEQLTYKGAVYVYFGSKQGGMSSSPNITISCQDIYCNLGWTLLAADVNGDSEPDLVIGSPFAPGGGKQKGIVAAFYSGPSLSDKEKLNVEAANWTVRGEEDFSWFGYSLHGVTVDNRTLLLVGSPTWKNASRLGHLLHIRDEKKSLGRVYGYFPPNGQSWFTISGDKAMGKLGTSLSSGHVLMNGTLKQVLLVGAPTYDDVSKVAFLTVTLHQGGATRMYALTSDAQPLLLSTFSGDRRFSRFGGVLHLSDLDDDGLDEIIMAAPLRIADVTSGLIGGEDGRVYVYNGKETTLGDMTGKCKSWITPCPEEKAQYVLISPEASSRFGSSLITVRSKAKNQVVIAAGRSSLGARLSGALHVYSLGSD
With B6, the “Semi-quantitative analysis of proteins binding to different plaque particles: Abeta-42” value in experiment [1] is reported as 0. In addition, the “Semi-quantitative analysis of proteins binding to different plaque particles: Tau” value in the experiment with Tau plaque particles worked out at 2. In experiment [2], the “Semi-quantitative analysis of proteins binding to different plaque particles: Synuclein” value worked out at 0. The “Semi-quantitative analysis of proteins binding to different plaque particles: Chl small” value in experiment [3] stood at 1. Besides, the “Semi-quantitative analysis of proteins binding to different plaque particles: Chl Large” value in experiment [4] turned out to be 1.

B7: Thyroxine-binding globulin (protein)
chain: ASPEGKVTACHSSQPNATLYKMSSINADFAFNLYRRFTVETPDKNIFFSPVSISAALVMLSFGACCSTQTEIVETLGFNLTDTPMVEIQHGFQHLICSLNFPKKELELQIGNALFIGKHLKPLAKFLNDVKTLYETEVFSTDFSNISAAKQEINSHVEMQTKGKVVGLIQDLKPNTIMVLVNYIHFKAQWANPFDPSKTEDSSSFLIDKTTTVQVPMMHQMEQYYHLVDMELNCTVLQMDYSKNALALFVLPKEGQMESVEAAMSSKTLKKWNRLLQKGWVDLFVPKFSISATYDLGATLLKMGIQHAYSENADFSGLTEDNGLKLSNAAHKAVLHIGEKGTEAAAVPEVELSDQPENTFLHPIIQIDRSFMLLILERSTRSILFLGKVVNPTEA
On to B7, for which, in experiment [1], the “Semi-quantitative analysis of proteins binding to different plaque particles: Abeta-42” value is on record as 2. In addition, the “Semi-quantitative analysis of proteins binding to different plaque particles: Tau” value with Tau plaque particles amounted to 1. Besides, the “Semi-quantitative analysis of proteins binding to different plaque particles: Synuclein” value in experiment [2] was 0. The “Semi-quantitative analysis of proteins binding to different plaque particles: Chl small” value in experiment [3] was determined as 1. The “Semi-quantitative analysis of proteins binding to different plaque particles: Chl Large” value in experiment [4] is given as 0.

B8: Platelet factor 4 variant (protein)
chain: FARAEAEEDGDLQCLCVKTTSQVRPRHITSLEVIKAGPHCPTAQLIATLKNGRKICLDLQALLYKKIIKEHLES
B8: the “Semi-quantitative analysis of proteins binding to different plaque particles: Abeta-42” value in experiment [1] is recorded as 0. Besides, the “Semi-quantitative analysis of proteins binding to different plaque particles: Tau” value in the experiment with Tau plaque particles is listed as 0. Besides, the “Semi-quantitative analysis of proteins binding to different plaque particles: Synuclein” value in experiment [2] came out at 1. In experiment [3], the “Semi-quantitative analysis of proteins binding to different plaque particles: Chl small” value is 0. Also, the “Semi-quantitative analysis of proteins binding to different plaque particles: Chl Large” value in experiment [4] stood at 1.

B9: Tetranectin (protein)
chain: EPPTQKPKKIVNAKKDVVNTKMFEELKSRLDTLAQEVALLKEQQALQTVCLKGTKVHMKCFLAFTQTKTFHEASEDCISRGGTLGTPQTGSENDALYEYLRQSVGNEAEIWLGLNDMAAEGTWVDMTGARIAYKNWETEITAQPDGGKTENCAVLSGAANGKWFDKRCRDQLPYICQFGIV
For the molecule B9, in experiment [1], the “Semi-quantitative analysis of proteins binding to different plaque particles: Abeta-42” value is recorded as 0. In the experiment on Tau plaque particles, the “Semi-quantitative analysis of proteins binding to different plaque particles: Tau” value came out at 0. Further, in experiment [2], the “Semi-quantitative analysis of proteins binding to different plaque particles: Synuclein” value is reported as 0. Also, in experiment [3], the “Semi-quantitative analysis of proteins binding to different plaque particles: Chl small” value turned out to be 1. For the same molecule, the “Semi-quantitative analysis of proteins binding to different plaque particles: Chl Large” value in experiment [4] is listed as 0.

For the origin of these results see patent US9618524B2, “Method, composition, isolation and identification of a plaque particle and related biomarker” (Plaxgen Inc., priority 2012, dated 2017).
